Assay results: paper PMC11567897

Target: T1, Bruno-EGFP (BrunoFL-EGFP) (UniProt O02374)
T1 sequence: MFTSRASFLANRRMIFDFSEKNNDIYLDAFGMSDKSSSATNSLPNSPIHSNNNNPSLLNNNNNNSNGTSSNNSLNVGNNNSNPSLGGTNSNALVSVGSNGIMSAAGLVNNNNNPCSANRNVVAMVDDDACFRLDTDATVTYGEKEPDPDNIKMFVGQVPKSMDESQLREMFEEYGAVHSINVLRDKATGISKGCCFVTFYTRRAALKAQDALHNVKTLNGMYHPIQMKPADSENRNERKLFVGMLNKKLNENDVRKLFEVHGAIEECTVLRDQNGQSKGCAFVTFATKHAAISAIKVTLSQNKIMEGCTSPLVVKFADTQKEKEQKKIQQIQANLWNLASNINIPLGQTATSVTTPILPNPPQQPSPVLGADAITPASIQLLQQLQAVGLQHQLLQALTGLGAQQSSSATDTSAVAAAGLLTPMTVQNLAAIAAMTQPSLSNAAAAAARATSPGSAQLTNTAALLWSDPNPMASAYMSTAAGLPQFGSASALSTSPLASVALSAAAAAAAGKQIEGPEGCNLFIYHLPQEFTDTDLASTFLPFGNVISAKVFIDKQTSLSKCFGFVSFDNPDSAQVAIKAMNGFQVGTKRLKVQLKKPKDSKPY
Assay: EMSA
Details: EMSA: 50 nM RNA, 20 mM Tris-HCl pH 7.5, 150 mM NaCl, 2 mM MgCl2, 5% glycerol, 0.5 mM TCEP, 20 min at room temperature; 0.8% agarose 0.5x TBE gel at 4 C

GGGAGUGAAGCAUUUGCGCGAUUUUCGUCUUUCUGUUUCCGUUUGCAAAAAAGUUUAUAAAAUGCUUACACUCUGCUGCAGACACGCCAACCGGAAGUGCGCACUAAGCGCUUGUUUGUAGCACAGUGUAGAAUUCUGGCGUAAUUUACAGCUCUACUUUAAAGUCUUCUAGAUAGCUAUCUACUAUUUAUAAACUUAUUUAUUGUCUUGAAUGUAUGUUAAUUGUAUGUAUUGAUGGUGAUCACGUUUUUUUUGUCCUAUAACAAGCUGCAAUGUAAAAUCCAAAAAAAAAAUG [oskar292]
binding: binds

GGGUGGAAAAUUCGCUUGCACAAAAUCAACGCCGCGGCUGAUUUAUUAUUGAUGUGCUCAAGCAAAUUCA [WTOES (WT67)]
binding: no binding

GGGUGGAAAAUUCGCUUGCACAAAAUCAACGUUGCGGCUGAUUUAUUAUUGAUGUGCUCAAGCAAAUUCA [UUOES (UU67)]
binding: no binding
